This series addresses T1, BMC03 (uncultured bacterium (metagenome)).
T1 chain: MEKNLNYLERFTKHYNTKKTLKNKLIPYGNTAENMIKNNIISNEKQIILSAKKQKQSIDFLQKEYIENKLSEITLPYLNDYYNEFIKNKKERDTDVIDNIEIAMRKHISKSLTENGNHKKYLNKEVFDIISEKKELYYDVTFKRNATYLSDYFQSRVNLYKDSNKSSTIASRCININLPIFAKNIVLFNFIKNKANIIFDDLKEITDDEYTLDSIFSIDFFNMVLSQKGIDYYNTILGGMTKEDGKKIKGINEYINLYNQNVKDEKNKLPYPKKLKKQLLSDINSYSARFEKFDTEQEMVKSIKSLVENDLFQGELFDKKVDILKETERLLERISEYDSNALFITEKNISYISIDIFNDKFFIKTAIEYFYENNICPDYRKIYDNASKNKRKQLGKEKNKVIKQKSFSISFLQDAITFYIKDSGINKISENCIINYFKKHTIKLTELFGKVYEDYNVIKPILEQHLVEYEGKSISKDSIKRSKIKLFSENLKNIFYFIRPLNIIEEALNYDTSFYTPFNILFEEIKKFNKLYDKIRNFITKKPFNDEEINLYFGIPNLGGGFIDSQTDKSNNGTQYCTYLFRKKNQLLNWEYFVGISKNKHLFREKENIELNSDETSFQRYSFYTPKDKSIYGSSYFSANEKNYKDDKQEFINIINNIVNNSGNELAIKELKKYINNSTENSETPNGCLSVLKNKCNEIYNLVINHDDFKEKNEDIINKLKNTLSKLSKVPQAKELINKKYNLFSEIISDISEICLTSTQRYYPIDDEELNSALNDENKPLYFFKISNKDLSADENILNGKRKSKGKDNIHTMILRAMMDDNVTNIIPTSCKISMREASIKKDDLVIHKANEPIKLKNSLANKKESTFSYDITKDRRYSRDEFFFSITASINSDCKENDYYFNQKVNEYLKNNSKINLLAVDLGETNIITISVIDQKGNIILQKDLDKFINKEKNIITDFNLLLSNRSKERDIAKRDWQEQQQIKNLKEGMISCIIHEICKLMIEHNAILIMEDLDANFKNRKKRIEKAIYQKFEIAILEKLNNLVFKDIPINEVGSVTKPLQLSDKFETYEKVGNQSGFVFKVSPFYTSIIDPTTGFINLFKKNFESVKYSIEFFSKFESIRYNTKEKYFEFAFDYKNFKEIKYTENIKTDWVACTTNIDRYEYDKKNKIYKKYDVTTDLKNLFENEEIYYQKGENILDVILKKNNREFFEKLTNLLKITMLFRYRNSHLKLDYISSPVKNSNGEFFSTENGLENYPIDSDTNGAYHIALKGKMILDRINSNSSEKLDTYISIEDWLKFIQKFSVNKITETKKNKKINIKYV
Briefly: cell_activity; PAM not stated; E. coli depletion, 30 C. In short, it runs like this:
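E. coli carrying arabinose-induced (0.2%) BMC nuclease, grown at 30° C., made electrocompetent and electroporated with 50-100 ng plasmid carrying gRNA against malQ. Transformants plated on selective M9-glucose agar with kanamycin/ampicillin (± nourseothricin), and growth scored after 48 h at 30° C.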

B1: malQ gRNA (BMC stem-loop + 24 nt spacer) ; malQ protospacer (ssRNA ; dsDNA)
RNA: GAUUUCUACUAUUGUAGAUGUGGCGGUACGUUGAUGCAUCGCG
DNA 1: GTGGCGGTACGTTGATGCATCGCG
DNA 2: CGCGATGCATCAACGTACCGCCAC
As for B1, the activity is more than 99.9 % colony reduction.

(Values after patent US20250277199, “NOVEL CRISPR-CAS NUCLEASES FROM METAGENOMES” (Brain Biotech AG, published 2025).)
